Laboratory results taken from the supplement of paper PMC7125110.
± gives the standard error. Fewer inactive variants are shown than the library holds.

B1: glmS ribozyme (parent)
chain: AUAAAAGCGCCAGAACUACAGAAAUGUAGUUGACGAGGAGGAGGUUUAUCGAAUUUUCGGCGGAUGCCUCCAAA

Columns and labels:
Settings in all cases: with glucosamine-6-phosphate
glucosamine-6-phosphate [1] = variants of: B1; assay: self-cleavage kobs at 640 uM GlcN6P; higher = faster cleavage; RNA array
How it was run: (§1)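 A hybridised Cy3 probe tracked barcoded ribozyme variants, transcribed in situ by E. coli RNA polymerase on sequenced MiSeq chips, at 37 °C. The variants received 40 μM to 10 mM glucosamine-6-phosphate in HEPES/KCl/Mg(OAc)2 buffer. kobs came from decay fits and kcat and KM from weighted Michaelis–Menten fits.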

glucosamine-6-phosphate [2] = variants of: B1; assay: self-cleavage kobs at 2500 uM GlcN6P; higher = faster cleavage; RNA array
How it was run: as §1

glucosamine-6-phosphate [3] = variants of: B1; assay: self-cleavage kobs at 10000 uM GlcN6P; higher = faster cleavage; RNA array
How it was run: as §1

Row | Variant | self-cleavage kobs at 640 uM GlcN6P (glucosamine-6-phosphate [1]) [s⁻¹] | self-cleavage kobs at 2500 uM GlcN6P (glucosamine-6-phosphate [2]) [s⁻¹] | self-cleavage kobs at 10000 uM GlcN6P (glucosamine-6-phosphate [3]) [s⁻¹]
1 | G13A A53G G66A | 6.41e-05 ± 2.2e-05 |  | 
2 | A14G C34U A52C C68U C70U | 8.57e-05 ± 4.2e-05 |  | 
3 | G13C G29C G44U C50A G62C | < 1e-05 | < 1e-05 | < 1e-05
4 | C11G C16U G37A U45C A64G | < 1e-05 |  | 
5 | C10U G38C G40A U55G | < 1e-05 | < 1e-05 | < 1e-05
6 | G13A C68G C71G | 0.000118 ± 5e-05 | 0.000141 ± 3.4e-05 | 
7 | A12G G63A A64C | < 1e-05 |  | 
8 | G13U A39G C67A | 9.82e-05 ± 3.9e-05 |  | 
9 | G13U G35U C50U G66C | < 1e-05 |  | 
10 | C11G G13C G38C C58A | < 1e-05 | < 1e-05 | 
11 | A14C U49G C68U | < 1e-05 |  | 
12 | A14C C16A G43U C68U | < 1e-05 | < 1e-05 | 
13 | C11G A12U G38C A42U | < 1e-05 | < 1e-05 | 
14 | C10U G29A C61A G62A C70U | 7.67e-05 ± 3.8e-05 |  | 
15 | C11A C16A C50G | 0.000146 ± 4.5e-05 | 8e-05 ± 2.7e-05 | 
16 | A14G G29C A33C | < 1e-05 |  | 
17 | A14C A15G G37C U49C | < 1e-05 |  | 
18 | C11U A15C U31C | 6.01e-05 ± 2.1e-05 | 0.000159 ± 5e-05 | 
19 | C10U C16U G63U | < 1e-05 |  | < 1e-05
20 | A12G A33C C50A C68G | 0.000144 ± 6.5e-05 | 0.00016 ± 6.5e-05 | 
21 | A14C G32A G40U G59C | < 1e-05 |  | 
22 | C10U C61A C67G C71G | 0.000112 ± 3.5e-05 | 7.34e-05 ± 2.4e-05 | 

Row | Variant | self-cleavage kobs at 640 uM GlcN6P (glucosamine-6-phosphate [1]) [s⁻¹] | self-cleavage kobs at 2500 uM GlcN6P (glucosamine-6-phosphate [2]) [s⁻¹] | self-cleavage kobs at 10000 uM GlcN6P (glucosamine-6-phosphate [3]) [s⁻¹]
23 | C11U A42C U54C G59A G60A | < 1e-05 | < 1e-05 | 
24 | G13U A39U A48U G51A U55G C70A | < 1e-05 |  | 
25 | C11U U54G C58A C67G | 0.000225 ± 7.2e-05 | 5.14e-05 ± 2e-05 | 
26 | A14G G29U G38C U56C | < 1e-05 |  | 
27 | A14G C16U G41A | 0.00178 ± 0.00032 | 0.0028 ± 0.00078 | 
28 | C11A C16G A42U U56G C71U | < 1e-05 | < 1e-05 | 
29 | C11U A15U C70G | 0.000134 ± 4.8e-05 |  | 
30 | G13C U56A C58G C71U | 3.8e-05 ± 1.2e-05 | 6.28e-05 ± 1.9e-05 | 
31 | A14C G32C C71U | 7.58e-05 ± 2.5e-05 | 0.000118 ± 2.6e-05 | 0.000332 ± 7.4e-05
32 | C11G G13A C70G | 0.000406 ± 0.00015 | 6.69e-05 ± 3.1e-05 | 
33 | A12U A42G C70G | 0.000705 ± 0.00032 | 0.00109 ± 0.00041 | 
34 | C10U C50U A53C | < 1e-05 |  | 
35 | G13U G32A C70A | 5.59e-05 ± 2.4e-05 | 0.000106 ± 3.2e-05 | 
36 | G13A A15U G35U G40C | < 1e-05 |  | 
37 | C11A G59A C61G C70A | 0.000163 ± 7.6e-05 |  | 
38 | C11U U55G C70A | 8.31e-05 ± 3.3e-05 | 0.000101 ± 2.5e-05 | 
39 | G13A G40A G62A | < 1e-05 | < 1e-05 | 
40 | A12G A39G C70G | 0.00011 ± 3.5e-05 |  | 
41 | A14C A33C C67G | < 1e-05 |  | 
42 | C11A U54A U55G G63U U65G | < 1e-05 |  | 
43 | G13U A14U A48U | < 1e-05 | < 1e-05 | 
44 | C11A U30C A53C C71U | < 1e-05 |  | 

Row | Variant | self-cleavage kobs at 640 uM GlcN6P (glucosamine-6-phosphate [1]) [s⁻¹] | self-cleavage kobs at 2500 uM GlcN6P (glucosamine-6-phosphate [2]) [s⁻¹] | self-cleavage kobs at 10000 uM GlcN6P (glucosamine-6-phosphate [3]) [s⁻¹]
45 | C11G G41C U45G | < 1e-05 |  | 
46 | G13C G43U C58G | < 1e-05 | < 1e-05 | < 1e-05
47 | C11G C16A C50G U65G | 0.000148 ± 5.2e-05 |  | 
48 | C11G A12C C70U | 6.11e-05 ± 2.5e-05 | 8.42e-05 ± 2.9e-05 | 
49 | A14C U49G U54G C68G | 7.91e-05 ± 3.6e-05 |  | 
50 | G13C A15C A52U G66C | < 1e-05 |  | 
51 | G13U G51C G62C | < 1e-05 |  | 
52 | G13A U56A C67A U69G | 0.000128 ± 3.8e-05 |  | 
53 | A12G G13U G62A | < 1e-05 |  | 
54 | C11U A36U G44C G62U | < 1e-05 |  | 
55 | C11A A14G G43A U45G | 4.76e-05 ± 2e-05 |  | 
56 | A12C G29A G43U C71G | < 1e-05 | < 1e-05 | 
57 | C11G U47G C50A C70G | 0.000245 ± 6.2e-05 | 0.000139 ± 4e-05 | 7.52e-05 ± 1.9e-05
58 | A12U G37A U56G | 0.00137 ± 0.00022 | 0.00379 ± 0.00089 | 
59 | A14C A42G G66A | 0.000473 ± 0.00012 |  | 0.00177 ± 0.0006
60 | C11G G13C A15G G43U G63C | < 1e-05 | < 1e-05 | 
61 | C10U G35U | < 1e-05 | < 1e-05 | < 1e-05
62 | C11U G60A | < 1e-05 | < 1e-05 | < 1e-05
63 | C11U U30C C71A | 0.000112 ± 2.4e-05 | 6.85e-05 ± 2.1e-05 | 
64 | G13U G29U A39G | 0.000115 ± 2.8e-05 | 7.21e-05 ± 2.3e-05 | 
65 | C11A U56A C70U C71A | 0.000256 ± 7.9e-05 |  | 
